From paper PMC11031989, “Structural determinants for activation of the Tau kinase CDK5 by the serotonin receptor 5-HT7R” (Cell Communication and Signaling : CCS, 2024)

Legend:
[1] = molecular target: T1, mCherry-tagged CDK5 (cyclin-dependent kinase 5) (UniProt Q00535 1-292); experiment: co-IP; N1E-115 cells co-transfected with mCherry-tagged CDK5 and HA-tagged 5-HT7R constructs; IP with anti-mCherry antibody, Western blot with anti-HA antibody; ratio of co-precipitated receptor normalized to the WT sample; also done after knock-down of Gαs by shRNA (Additional file 5); conditions: partners not purified
T1 construct: Cyclin-dependent kinase 5 (CDK5); Printed both as CDK5-mCherry and as mCherry-CDK5; also called CDK5-mCherry; mCherry-CDK5; source: N1E-115 cells, transfected, in lysate

[2] = molecular target: T1, mCherry-tagged CDK5 (cyclin-dependent …); experiment: cell-based or functional assay

| co-precipitated receptor, normalized to WT [1] [%] | phosphorylation of endogenous CDK5 at S159 (read-out for CDK5 activation) in N1E-115 cells expressing the HA-tagged receptor, % of WT [2] [%] | Binder |
| --- | --- | --- |
| 100 | – | HA-tagged 5-HT7R (serotonin receptor 7), wild type (receptor, UniProt P32304 1-448, looked up, Serotonin receptor 7 (5-HT7R), wild type; pcDNA3.1(+) vector; also called 5-HT7R WT; WT; source: N1E-115 cells, transfected, in lysate; not shown: HA, N-terminal, kept) MMDVNSSGRPDLYGHLRSLILPEVGRRLQDLSPDGGAHSVVSSWMPHLLSGFPEVTASPAPTWDAPPDNVSGCGEQINYGRVEKVVIGSILTLITLLTIAGNCLVVISVCFVKKLRQPSNYLIVSLALADLSVAVAVMPFVSVTDLIGGKWIFGHFFCNVFIAMDVMCCTASIMTLCVISIDRYLGITRPLTYPVRQNGKCMAKMILSVWLLSASITLPPLFGWAQNVNDDKVCLISQDFGYTIYSTAVAFYIPMSVMLFMYYQIYKAARKSAAKHKFSGFPRVQPESVISLNGVVKLQKEVEECANLSRLLKHERKNISIFKREQKAATTLGIIVGAFTVCWLPFFLLSTARPFICGTSCSCIPLWVERTCLWLGYANSLINPFIYAFFNRDLRTTYRSLLQCQYRNINRKLSAAGMHEALKLAERPERSEFVLQNCDHCGKKGHDT |
| 64.5 | 49.2 | HA-tagged 5-HT7R F278A;F281A (receptor, UniProt P32304 1-448, looked up, Serotonin receptor 7 (5-HT7R) with F278A and F281A in intracellular loop 3; Primers are in Additional file 1; also called F278;F281A; source: N1E-115 cells, transfected, in lysate; not shown: HA, N-terminal, kept) MMDVNSSGRPDLYGHLRSLILPEVGRRLQDLSPDGGAHSVVSSWMPHLLSGFPEVTASPAPTWDAPPDNVSGCGEQINYGRVEKVVIGSILTLITLLTIAGNCLVVISVCFVKKLRQPSNYLIVSLALADLSVAVAVMPFVSVTDLIGGKWIFGHFFCNVFIAMDVMCCTASIMTLCVISIDRYLGITRPLTYPVRQNGKCMAKMILSVWLLSASITLPPLFGWAQNVNDDKVCLISQDFGYTIYSTAVAFYIPMSVMLFMYYQIYKAARKSAAKHKASGAPRVQPESVISLNGVVKLQKEVEECANLSRLLKHERKNISIFKREQKAATTLGIIVGAFTVCWLPFFLLSTARPFICGTSCSCIPLWVERTCLWLGYANSLINPFIYAFFNRDLRTTYRSLLQCQYRNINRKLSAAGMHEALKLAERPERSEFVLQNCDHCGKKGHDT |
| 73.8 | 45.7 | HA-tagged 5-HT7R F281A (receptor, UniProt P32304 1-448, looked up, Serotonin receptor 7 (5-HT7R) with F281A in intracellular loop 3; Primers are in Additional file 1; source: N1E-115 cells, transfected, in lysate; not shown: HA, N-terminal, kept) MMDVNSSGRPDLYGHLRSLILPEVGRRLQDLSPDGGAHSVVSSWMPHLLSGFPEVTASPAPTWDAPPDNVSGCGEQINYGRVEKVVIGSILTLITLLTIAGNCLVVISVCFVKKLRQPSNYLIVSLALADLSVAVAVMPFVSVTDLIGGKWIFGHFFCNVFIAMDVMCCTASIMTLCVISIDRYLGITRPLTYPVRQNGKCMAKMILSVWLLSASITLPPLFGWAQNVNDDKVCLISQDFGYTIYSTAVAFYIPMSVMLFMYYQIYKAARKSAAKHKFSGAPRVQPESVISLNGVVKLQKEVEECANLSRLLKHERKNISIFKREQKAATTLGIIVGAFTVCWLPFFLLSTARPFICGTSCSCIPLWVERTCLWLGYANSLINPFIYAFFNRDLRTTYRSLLQCQYRNINRKLSAAGMHEALKLAERPERSEFVLQNCDHCGKKGHDT |
